Experimental data reported in doi:10.1101/2020.03.26.992446.

Tests used:
[1] = target: purified DJ-1 V51C (N-terminal 6×His-tagged) (human) (UniProt Q99497); assay: SEC
[2] = target: T1, purified DJ-1 WT (N-terminal 6×His-tagged) (human), Q99497; assay: SEC; settings: remark: other sources report otherwise
T1 chain: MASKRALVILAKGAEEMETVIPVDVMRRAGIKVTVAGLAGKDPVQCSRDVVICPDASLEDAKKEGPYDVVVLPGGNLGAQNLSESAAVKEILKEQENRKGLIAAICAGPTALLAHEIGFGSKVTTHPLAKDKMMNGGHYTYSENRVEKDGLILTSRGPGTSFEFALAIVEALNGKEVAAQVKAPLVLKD

Row | Molecule | percent of protein that is dimer [1] [%] | percent of protein that is dimer [2] [%] | stoichiometry N [2]
1 | purified DJ-1 V51C (N-terminal 6×His-tagged) (from UniProt Q99497 1-189) (natural protein) | 15 |  | 
2 | purified DJ-1 WT (N-terminal 6×His-tagged), Q99497 1-189 (natural protein) MASKRALVILAKGAEEMETVIPVDVMRRAGIKVTVAGLAGKDPVQCSRDVVICPDASLEDAKKEGPYDVVVLPGGNLGAQNLSESAAVKEILKEQENRKGLIAAICAGPTALLAHEIGFGSKVTTHPLAKDKMMNGGHYTYSENRVEKDGLILTSRGPGTSFEFALAIVEALNGKEVAAQVKAPLVLKD |  | 33 | 2
